These results are taken from the nanobody polyreactivity screen of Harvey et al. (2022).

A short description of the data set: yeast display, Sf9 membrane polyspecificity reagent, FACS + sequencing; frameworks hold sequencing errors. The essentials:
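After 36–48 hours of galactose induction, yeast (Saccharomyces cerevisiae BJ5465) displaying a synthetic nanobody library were stained at 4 °C for 1 hour with 10% biotinylated, detergent-solubilized Sf9 membrane reagent. Streptavidin microbeads enriched the stained cells before FACS sorting into low and high (top ~1%) gates on anti-HA and streptavidin fluorescence. Each clone's polyreactivity label reflects its gate of origin.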
For “QVQLVESGGGLVQAGGSLRLSCAASGFTFRRNAMGWYRQAPGTERELVAAINVRDGSTYYADSVKGRFTISRDNAKNTVYVQMNSLKPEDTAVYYCAAEFFQGYYWYYYWGQGTQVTVSS”, the “polyreactivity (PSR sort gate)” value was “high polyreactivity”.

Regarding “QVQLVESGGGLVQAGGSLRLSCAASGLIFYYYTMGWYRQAPGKERELVARITSSGGRTYYADSVKGRFTISRDNAKNTVYLQMNSLKPEDTAVYYCNARVPRYNGGSTMEYWGQGTQVTVSS”, the “polyreactivity (PSR sort gate)” value is on record as “high polyreactivity”.

With “QVQLVETGGGLVQAGGSLRLSCAASGLIFTINAMGWYRQAPGKERELVAAITNGDSTHYADSVKGRFTISRDNAKNTVYLQMNSLKPEDTAVYYCAARSYTYYGLRFGYWGQGTQVTVSS”, the “polyreactivity (PSR sort gate)” value was “high polyreactivity”.

Turning to “QVQLVDSGGGLVQAGGSLRLSCAASGFTFDGYAMGWYRQAPGQEREFVATISLSGGSTYYADSVKGRCTISRDNAKNTVYLQMNSLNPEDTAVYYCGKDTQPYLIDGFEYWGQGTQVTVSS”, the “polyreactivity (PSR sort gate)” value is “low polyreactivity”.

For the sequence “QVQLVESGGALVQAGGSLRLSCAASGYTFCYNAMGWYRQAPGKEREFVAAISWSGGSTYYADSVKGRFTISRDNAKNTVYLQMYSLKPEDTAVYYCAVEGVYWYVSMYYWGQGTQVTVSS”, the “polyreactivity (PSR sort gate)” value was “low polyreactivity”.

Regarding “QVQLVESGGGLVQAGGSLRLSCAASGRILNYYTMGWYRQAPGKERELVAAISGSDGNTYYADSVKGRFTISRDNAKNTVYLQKNSLKPEDTAVYYCSADLYDEWGQGTQVTVSS”, the “polyreactivity (PSR sort gate)” value was “low polyreactivity”.

In the case of “QVQLVESGGGLVQAGGSLRLSCAASGFIFRDNAMGWYRQAPGKERELVAAISSRGGSTYYADSVKGRFTISRDNAKNTVYLQMNSLKPEDTAVYYCAKRPYKSRVQLDSWGQGTQVTVSS”, the “polyreactivity (PSR sort gate)” value is “high polyreactivity”.

With “QVQLVESGGGLVQAGGSLRLSCAASGRIFGSYAMGWYRQAPGKERELVAAISWNGGSRYYADSVKGRFTISRDNAKNTVYLQMNSLKPEDTAVYYCAVVYRAYRSTAYLYGYWGQGTQVTVSS”, the “polyreactivity (PSR sort gate)” value was “high polyreactivity”.

On to “QVQLVESGGGLVQAGGSLRLSCAASGRIFYRYAMGWYRQAPGKERELVAAIRYSGGRTYYADSVKGRFTISRDNAKNTVYLQMNSLKPEDTAVYDCAADGHWYYAPFGGGDYENDYWGQGTQVTVSS”, for which the “polyreactivity (PSR sort gate)” value was “low polyreactivity”.

As to “QVQLVESVGGLVQAGGSLRLSCAASGRIFDRYAMGWYRQAPGKERELVAAISSSGGSTYYADSVKGRFTISRDNAKNTVYLQMNSLKPEDTAVYYCAAPRSRSRTSRFDYWGQGTQVTVSS”, the “polyreactivity (PSR sort gate)” value is on record as “high polyreactivity”.

Turning to “QVQLVESGGGLVQAGGSLRLSCAASGFNFGINAMGWYRQAPGKEREWVAAINQSGDRTYYADSVKGRFTISRDNAKNTVYLQMNSLNPEDTEVYYCASLSTYRTWYGDWGQGTQVTVSS”, the “polyreactivity (PSR sort gate)” value was “high polyreactivity”.

In the case of “QDQLVESGGGLVQAGGSLRLSCAASGSTLAGYAMGWYRLAPGKVRELVAAIDWTGGSTTYADSVKGRFTISRDNAKNTVYLQMNSLKPEDTAVYYCNVDLGVNGDYWGQGTQVTVSS”, the “polyreactivity (PSR sort gate)” value is reported as “low polyreactivity”.

As to “QVQLVESGGGLVQAGGSLRLSCSASGLTFYGYVMGWYRQAPGKERELVASISRSGRRTYYADSVKGRFTISRDNAKNTVYLQMNSLKPEDTAVYYCAAADHVGQEDDYWGLGTQVTVSS”, the “polyreactivity (PSR sort gate)” value was “low polyreactivity”.

For the sequence “QVQLVESGGGLVQAGGSLRLSCAASGYTFDGYAMGWYRPAPGKERELVAAINSGGGTYYADSVKGRFTISRDYAKNTVYLQMNSLIPDDTAVYYCNKKAYRKTGLDYWGQGTQVTVSS”, the “polyreactivity (PSR sort gate)” value is “low polyreactivity”.

Turning to “QVQLVESGGGLVQAGGSLRLSCAASGSIFPGYAMGWYRQAPGKERELVATISTRGSTYYADSVKGRFTISRDNAKNTVYLQMNSLKPEDTAVYYCNTDFPTAQYDYWGQGTQVTVSS”, the “polyreactivity (PSR sort gate)” value was “low polyreactivity”.

Consider “QVQLVESGGGLVQAGGSLRLSCAASGRIFGWYAMGWYRQAPGKERELVATIRKSGGRTYYADSVKGRFTLSRDNAKNTVYFQMNSLKQEDTAVYYCAAENTAAGQGLWGEDYWGQGTQVTVSS”, for which the “polyreactivity (PSR sort gate)” value was “high polyreactivity”.
